Data reported in the supplement of paper PMC10126150.
± gives the standard deviation of the averaged measurements.

test system: ATP; assay: switch fluorescence ratio, 500 uM ATP over buffer (Cy3 cluster intensity, sum of 5 cycles each) (fold (ratio)); higher = stronger signal-on switching upon ATP binding; sequences stand for … in TCGTCGGCAGCGTCAGATGTGTATAAGAGACAGTTTTTTTTTTTTTTTTTTTTTTTTT…TC; conditions: aptamer strand: ATP DNA aptamer (quencher-CACCTGGGGGAGTATTGCGGAGGAAGG + anchor), 100 nM annealed; ATP concentration: 500 uM
Method in brief: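 Cy3-labelled switching-strand clusters on a modified Illumina MiSeq flow-cell were annealed to 100 nM quencher-labelled ATP aptamer and imaged first in selection buffer, then after 15 min with 500 uM ATP at 22 °C. NaOH stripping and re-annealing separated each of five buffer/ATP cycles, and clusters outside 100-1000 RFU were excluded. The fluorescence ratio sums target-cycle Cy3 intensity over buffer-cycle Cy3 intensity per cluster and averages it per switch-domain sequence.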
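Also: ATP exposure 15 min at 22 °C before imaging.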

TTTAAGTCTC and TTTAAGTGCG are within error of each other in switch fluorescence ratio: 1.001 ± 0.0062 for the first, 1.05 ± 0.09 for the second.

TTTAATAAGG and TTTAATACTG are within error of each other in switch fluorescence ratio: 0.9962 ± 0.0027 for the first, 1.08 ± 0.089 for the second.

TTTAATATAG and TTTAATATAT are within error of each other in switch fluorescence ratio: 1 ± 0.044 for the first, 1.02 ± 0.031 for the second.

Compared with TTTAATCGTT, TTTAATGATT is higher in switch fluorescence ratio: 0.999 ± 0.014 for the first, 1.05 ± 0.021 for the second.

TTTAATGTTT and TTTAATTCAT are within error of each other in switch fluorescence ratio: 1 ± 0.017 for the first, 1.008 ± 0.0088 for the second.

TTTAATTGTG and TTTACAAATT are within error of each other in switch fluorescence ratio: 0.9891 ± 0.0082 for the first, 1 ± 0.02 for the second.

Compared with TTTACAAGT, TTTACAATGG is higher in switch fluorescence ratio: 0.982 ± 0.035 for the first, 1.058 ± 0.0062 for the second.

First: TTTACAGGTA
Second: TTTACCGGAG
The switch fluorescence ratio of the first is lower: 0.981 ± 0.021 for the first, 1.15 ± 0.089 for the second.

TTTACCGGGA and TTTACGAAAG are within error of each other in switch fluorescence ratio: 1.13 ± 0.15 for the first, 1.04 ± 0.044 for the second.

Compared with TTTACGGAAC, TTTACGGTAA is lower in switch fluorescence ratio: 1.244 ± 0.0059 for the first, 1.15 ± 0.019 for the second.

TTTACGGTTG and TTTACGTCGG are within error of each other in switch fluorescence ratio: 0.996 ± 0.016 for the first, 1.02 ± 0.034 for the second.

TTTACGTGTT and TTTACTAGCA are within error of each other in switch fluorescence ratio: 0.991 ± 0.012 for the first, 1.04 ± 0.11 for the second.

Compared with TTTACTGCCT, TTTACTGGTG is higher in switch fluorescence ratio: 1.06 ± 0.022 for the first, 1.13 ± 0.012 for the second.

Compared with TTTACTTAGG, TTTACTTTGG is lower in switch fluorescence ratio: 1.04 ± 0.023 for the first, 0.982 ± 0.034 for the second.

TTTACTTTTC and TTTAGACAAT are within error of each other in switch fluorescence ratio: 1.49 ± 0.75 for the first, 1.02 ± 0.022 for the second.

TTTAGACGGG and TTTAGACGGT are within error of each other in switch fluorescence ratio: 0.965 ± 0.028 for the first, 1.02 ± 0.066 for the second.

TTTAGACGTG and TTTAGAGTCC are within error of each other in switch fluorescence ratio: 0.976 ± 0.012 for the first, 1.05 ± 0.098 for the second.

TTTAGAGTGC and TTTAGATATA are within error of each other in switch fluorescence ratio: 1 ± 0.093 for the first, 1.031 ± 0.0011 for the second.

TTTAGATCTT and TTTAGATTGT are within error of each other in switch fluorescence ratio: 0.981 ± 0.012 for the first, 1.01 ± 0.029 for the second.

TTTAGCAGGG and TTTAGCATGG are the same in switch fluorescence ratio: 1.01 ± 0.026 for the first, 1.01 ± 0.047 for the second.

TTTAGCGCAT and TTTAGCGTTT are within error of each other in switch fluorescence ratio: 1.04 ± 0.06 for the first, 0.997 ± 0.051 for the second.

TTTAGCTAGG and TTTAGCTAGT are the same in switch fluorescence ratio: 1.01 ± 0.033 for the first, 1.01 ± 0.032 for the second.

TTTAGGAGGA and TTTAGGATTT are within error of each other in switch fluorescence ratio: 0.997 ± 0.025 for the first, 0.985 ± 0.027 for the second.

TTTAGGCTGG and TTTAGGCTTT are within error of each other in switch fluorescence ratio: 0.979 ± 0.022 for the first, 1 ± 0.012 for the second.

TTTAGGGCGG and TTTAGGGGAG are the same in switch fluorescence ratio: 0.994 ± 0.017 for the first, 0.994 ± 0.022 for the second.

TTTAGGGTCA and TTTAGGTCAT are within error of each other in switch fluorescence ratio: 0.962 ± 0.062 for the first, 1.01 ± 0.083 for the second.

Compared with TTTAGGTTTT, TTTAGTACCT is higher in switch fluorescence ratio: 1.01 ± 0.021 for the first, 1.2 ± 0.044 for the second.

TTTAGTGGGC and TTTAGTGGGG are within error of each other in switch fluorescence ratio: 0.9843 ± 0.0081 for the first, 0.97 ± 0.01 for the second.

TTTAGTTGTT and TTTAGTTTTT are within error of each other in switch fluorescence ratio: 1.01 ± 0.03 for the first, 0.996 ± 0.042 for the second.

TTTATAAAAA and TTTATAAAAT are within error of each other in switch fluorescence ratio: 0.998 ± 0.026 for the first, 0.987 ± 0.039 for the second.

TTTATAAGGT and TTTATAATTA are within error of each other in switch fluorescence ratio: 0.988 ± 0.012 for the first, 0.982 ± 0.013 for the second.

First: TTTATAGAAA
Second: TTTATAGCGA
The switch fluorescence ratio of the first is lower: 1.05 ± 0.02 for the first, 1.63 ± 0.54 for the second.

TTTATAGCGG and TTTATAGTAA are within error of each other in switch fluorescence ratio: 0.996 ± 0.015 for the first, 0.98978 ± 0.00052 for the second.

TTTATAGTCT and TTTATAGTGT are within error of each other in switch fluorescence ratio: 0.99 ± 0.021 for the first, 0.9894 ± 0.0097 for the second.

TTTATAGTTT and TTTATATGAA are within error of each other in switch fluorescence ratio: 1.01 ± 0.026 for the first, 0.97 ± 0.042 for the second.

TTTATATGCG and TTTATATTTT are within error of each other in switch fluorescence ratio: 1 ± 0.027 for the first, 1.02 ± 0.034 for the second.

TTTATCCTTT and TTTATCGGGA are within error of each other in switch fluorescence ratio: 0.98 ± 0.025 for the first, 0.978 ± 0.017 for the second.

TTTATCGTTG and TTTATCTGAT are within error of each other in switch fluorescence ratio: 0.998 ± 0.025 for the first, 0.965 ± 0.025 for the second.

TTTATGAGCT and TTTATGAGGA are within error of each other in switch fluorescence ratio: 1.03 ± 0.014 for the first, 1.02 ± 0.021 for the second.

TTTATGATGC and TTTATGCACT are within error of each other in switch fluorescence ratio: 1.011 ± 0.0092 for the first, 1.05 ± 0.051 for the second.

TTTATGCAGC and TTTATGCTGT are within error of each other in switch fluorescence ratio: 1.12 ± 0.16 for the first, 0.976 ± 0.02 for the second.

First: TTTATGGAGG
Second: TTTATGGCTA
The switch fluorescence ratio of the first is lower: 0.991 ± 0.02 for the first, 1.03 ± 0.011 for the second.

TTTATGGGAT and TTTATGGGCG are within error of each other in switch fluorescence ratio: 0.986 ± 0.032 for the first, 1.34 ± 0.64 for the second.

First: TTTATGTCCA
Second: TTTATGTCCG
The switch fluorescence ratio of the first is lower: 0.9923 ± 0.0021 for the first, 1.04 ± 0.042 for the second.

TTTATGTCGC and TTTATGTCGT are within error of each other in switch fluorescence ratio: 1.01 ± 0.054 for the first, 0.986 ± 0.038 for the second.

TTTATTACGC and TTTATTAGTA are within error of each other in switch fluorescence ratio: 0.999 ± 0.053 for the first, 0.983 ± 0.024 for the second.

TTTATTCAGG and TTTATTCCGT are within error of each other in switch fluorescence ratio: 1.02 ± 0.032 for the first, 0.999 ± 0.037 for the second.

Compared with TTTATTGACG, TTTATTGATG is higher in switch fluorescence ratio: 0.886 ± 0.012 for the first, 0.997 ± 0.016 for the second.

TTTATTGGTT and TTTATTTGGA are within error of each other in switch fluorescence ratio: 1.07 ± 0.1 for the first, 1.018 ± 0.0012 for the second.

TTTATTTTCG and TTTATTTTCT are within error of each other in switch fluorescence ratio: 1.02 ± 0.037 for the first, 0.991 ± 0.015 for the second.
